Patent publication US20160120951A1 (ZEALAND PHARMA A S, published 2016)
Numbered stars: 1 amine (or outer) side, 2 acyl side, 3 side chain; on linkers, the order of the positions; unused ones are H or OH. Square brackets hold non-standard residues; d marks the D form. Side chains are listed from the residue outwards. Ends that are not written are not given here. * marks the point of attachment. γGlu = O=C(O)[C@H](CCC(=O)[*:2])N[*:1]; Palmitoyl = CCCCCCCCCCCCCCCC(=O)*; Aib = CC(C)(N)C(=O)O

B1: Compound 4 (peptide)
peptide: H-HSQGTFTSDYSKYLDSKAAK([γGlu-Palmitoyl])DFVEWLLRA-NH2
SMILES: CCCCCCCCCCCCCCCC(=O)N[C@@H](CCC(=O)NCCCC[C@H](NC(=O)[C@H](C)NC(=O)[C@H](C)NC(=O)[C@H](CCCCN)NC(=O)[C@H](CO)NC(=O)[C@H](CC(=O)O)NC(=O)[C@H](CC(C)C)NC(=O)[C@H](Cc1ccc(O)cc1)NC(=O)[C@H](CCCCN)NC(=O)[C@H](CO)NC(=O)[C@H](Cc1ccc(O)cc1)NC(=O)[C@H](CC(=O)O)NC(=O)[C@H](CO)NC(=O)[C@@H](NC(=O)[C@H](Cc1ccccc1)NC(=O)[C@@H](NC(=O)CNC(=O)[C@H](CCC(N)=O)NC(=O)[C@H](CO)NC(=O)[C@@H](N)Cc1c[nH]cn1)[C@@H](C)O)[C@@H](C)O)C(=O)N[C@@H](CC(=O)O)C(=O)N[C@@H](Cc1ccccc1)C(=O)N[C@H](C(=O)N[C@@H](CCC(=O)O)C(=O)N[C@@H](Cc1c[nH]c2ccccc12)C(=O)N[C@@H](CC(C)C)C(=O)N[C@@H](CC(C)C)C(=O)N[C@@H](CCCNC(=N)N)C(=O)N[C@@H](C)C(N)=O)C(C)C)C(=O)O
B2: Compound 11 (peptide)
peptide: H-H[Aib]QGTFTSDYSKYLDSK([γGlu-Palmitoyl])AAHDFVEWLLRA-NH2
SMILES: CCCCCCCCCCCCCCCC(=O)N[C@@H](CCC(=O)NCCCC[C@H](NC(=O)[C@H](CO)NC(=O)[C@H](CC(=O)O)NC(=O)[C@H](CC(C)C)NC(=O)[C@H](Cc1ccc(O)cc1)NC(=O)[C@H](CCCCN)NC(=O)[C@H](CO)NC(=O)[C@H](Cc1ccc(O)cc1)NC(=O)[C@H](CC(=O)O)NC(=O)[C@H](CO)NC(=O)[C@@H](NC(=O)[C@H](Cc1ccccc1)NC(=O)[C@@H](NC(=O)CNC(=O)[C@H](CCC(N)=O)NC(=O)C(C)(C)NC(=O)[C@@H](N)Cc1c[nH]cn1)[C@@H](C)O)[C@@H](C)O)C(=O)N[C@@H](C)C(=O)N[C@@H](C)C(=O)N[C@@H](Cc1c[nH]cn1)C(=O)N[C@@H](CC(=O)O)C(=O)N[C@@H](Cc1ccccc1)C(=O)N[C@H](C(=O)N[C@@H](CCC(=O)O)C(=O)N[C@@H](Cc1c[nH]c2ccccc12)C(=O)N[C@@H](CC(C)C)C(=O)N[C@@H](CC(C)C)C(=O)N[C@@H](CCCNC(=N)N)C(=O)N[C@@H](C)C(N)=O)C(C)C)C(=O)O
B3: Compound 2 (peptide)
peptide: HSQGTFTSDYSKYLDK([γGlu-Palmitoyl])KAAHDFVEWLLRA-NH2
modifications: N-terminus assumed
SMILES: CCCCCCCCCCCCCCCC(=O)N[C@@H](CCC(=O)NCCCC[C@H](NC(=O)[C@H](CC(=O)O)NC(=O)[C@H](CC(C)C)NC(=O)[C@H](Cc1ccc(O)cc1)NC(=O)[C@H](CCCCN)NC(=O)[C@H](CO)NC(=O)[C@H](Cc1ccc(O)cc1)NC(=O)[C@H](CC(=O)O)NC(=O)[C@H](CO)NC(=O)[C@@H](NC(=O)[C@H](Cc1ccccc1)NC(=O)[C@@H](NC(=O)CNC(=O)[C@H](CCC(N)=O)NC(=O)[C@H](CO)NC(=O)[C@@H](N)Cc1c[nH]cn1)[C@@H](C)O)[C@@H](C)O)C(=O)N[C@@H](CCCCN)C(=O)N[C@@H](C)C(=O)N[C@@H](C)C(=O)N[C@@H](Cc1c[nH]cn1)C(=O)N[C@@H](CC(=O)O)C(=O)N[C@@H](Cc1ccccc1)C(=O)N[C@H](C(=O)N[C@@H](CCC(=O)O)C(=O)N[C@@H](Cc1c[nH]c2ccccc12)C(=O)N[C@@H](CC(C)C)C(=O)N[C@@H](CC(C)C)C(=O)N[C@@H](CCCNC(=N)N)C(=O)N[C@@H](C)C(N)=O)C(C)C)C(=O)O
B4: Compound 3 (peptide)
peptide: H-HSQGTFTSDYSKYLDSK([γGlu-Palmitoyl])AAHDFVEWLLRA-NH2
SMILES: CCCCCCCCCCCCCCCC(=O)N[C@@H](CCC(=O)NCCCC[C@H](NC(=O)[C@H](CO)NC(=O)[C@H](CC(=O)O)NC(=O)[C@H](CC(C)C)NC(=O)[C@H](Cc1ccc(O)cc1)NC(=O)[C@H](CCCCN)NC(=O)[C@H](CO)NC(=O)[C@H](Cc1ccc(O)cc1)NC(=O)[C@H](CC(=O)O)NC(=O)[C@H](CO)NC(=O)[C@@H](NC(=O)[C@H](Cc1ccccc1)NC(=O)[C@@H](NC(=O)CNC(=O)[C@H](CCC(N)=O)NC(=O)[C@H](CO)NC(=O)[C@@H](N)Cc1c[nH]cn1)[C@@H](C)O)[C@@H](C)O)C(=O)N[C@@H](C)C(=O)N[C@@H](C)C(=O)N[C@@H](Cc1c[nH]cn1)C(=O)N[C@@H](CC(=O)O)C(=O)N[C@@H](Cc1ccccc1)C(=O)N[C@H](C(=O)N[C@@H](CCC(=O)O)C(=O)N[C@@H](Cc1c[nH]c2ccccc12)C(=O)N[C@@H](CC(C)C)C(=O)N[C@@H](CC(C)C)C(=O)N[C@@H](CCCNC(=N)N)C(=O)N[C@@H](C)C(N)=O)C(C)C)C(=O)O

biological target: human glucagon-like peptide 1 receptor (GLP-1R) (human, UniProt P43220 24-463); assay: cell-based or functional assay
Sequence (P43220 24-463): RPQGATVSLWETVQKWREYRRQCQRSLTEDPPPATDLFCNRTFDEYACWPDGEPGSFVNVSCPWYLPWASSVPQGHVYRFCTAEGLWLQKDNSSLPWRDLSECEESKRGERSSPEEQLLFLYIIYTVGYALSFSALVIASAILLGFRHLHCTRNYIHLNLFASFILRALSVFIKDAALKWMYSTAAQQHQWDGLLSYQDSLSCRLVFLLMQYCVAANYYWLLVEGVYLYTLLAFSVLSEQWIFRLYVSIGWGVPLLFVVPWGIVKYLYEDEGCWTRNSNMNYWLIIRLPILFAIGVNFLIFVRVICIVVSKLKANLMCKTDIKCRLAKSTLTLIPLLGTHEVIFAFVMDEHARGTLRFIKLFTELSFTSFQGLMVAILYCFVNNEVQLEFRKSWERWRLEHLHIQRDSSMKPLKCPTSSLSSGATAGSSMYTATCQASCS

Row | Binder | EC50 (nM) GLP-1R, cAMP formation
1 | H-HSQGTFTSDYSKYLDSKAAHDFVEWLLRA-NH2 [Compound 1] | 0.06 nM
2 | B1 | 0.1 nM
3 | B2 | 0.09 nM
4 | B3 | 0.2 nM
5 | B4 | 0.11 nM
6 | HXQGTFTSDYSKYLDSKAAHDFVEWLLSA (Aib at position 2; K(Hexadecanoyl-ε-Lys) at position 17; C-terminal amide (NH2)) [Compound 17] | 0.09 nM

biological target: T1, human glucagon receptor (Glucagon-R) (human, UniProt P47871 26-477); assay: cell-based or functional assay

Row | Binder | EC50 (nM) GluR, cAMP formation
7 | H-HSQGTFTSDYSKYLDSKAAHDFVEWLLRA-NH2 [Compound 1] | 0.06 nM
8 | B1 | 0.04 nM
9 | B2 | 0.16 nM
10 | B3 | 0.13 nM
11 | B4 | 0.12 nM
12 | HXQGTFTSDYSKYLDSKAAHDFVEWLLSA (Aib at position 2; K(Hexadecanoyl-ε-Lys) at position 17; C-terminal amide (NH2)) [Compound 17] | 0.39 nM

biological target: T1, human glucagon receptor (Glucagon-R); assay: cell-based or functional assay; remark: another data set of the same source

Row | Binder | GluR EC50 (nM) (1), cAMP formation in primary human hepatocytes | GluR EC50 (nM) (2), cAMP formation in primary human hepatocytes | GluR EC50 (nM) (log avg), cAMP formation in primary human hepatocytes
13 | H-HSQGTFTSDYSKYLDSKAAHDFVEWLLRA-NH2 [Compound 1] | 1.4 nM | 2.2 nM | 1.8 nM
14 | B2 | 32.9 nM | 25.5 nM | 28.9 nM
